For two molecules, Activity results are on record in patent publication US20060031961A1, “Aldehyde reductase” (priority 2004, published 2006).

This assay has as its system aldehyde reductase. Briefly: Aldehyde reductase activity assay of expressed, purified proteins (oxidation of NADPH, change in A340). The format is biochemical, Soybean (Glycine max L.). Here is the method: The activity assay measured oxidation of NADPH on a UV500 UV-Visible double-beam Spectrometer (Unicam) by monitoring the change in A340. The assay was performed at room temperature (approximately 23° C.) by adding all of the following reagents into a 1-mL 1-cm quartz cuvette: 500 μL of 200 mM HEPES-KOH pH 7.0, 200 μL of ddH2O, 100 μL of 1 mM NADPH, 25-50 μL aldehyde reductase extract in a 100 μL total volume of 100 mM HEPES-KOH pH 7.0, 10% glycerol buffer. After these samples were mixed and blanked and were incubated for three minutes and a pre-substrate rate was calculated, the assay was started by addition of the substrate to the sample cuvette (solvent was added to the reference cuvette). Several different substrates were tested with each enzyme preparation. These substrates included the following: 100 μL of 100 mM glyceraldehyde, 10 μL of 100 mM glyceraldehyde, or 100 μL of 0.5% […] hexanal in v/v ethanol, or 100 μL of a carbonyl compounds mixture (ULTRA Scientific, North Kingston, R.I.; formaldehyde, acetaldehyde, propanal, butantal, pentanal, hexanal, heptanal, octanal, nonanal, decanal, cyclohexanone, and crotonaldehdye (in methanol)). The carbonyl compounds mixture contains approximately 16 μmole total aldehyde per assay. Except for the inactivity seen in one aldehyde reductase extract with hexanal as the substrate, both of the aldehyde reductase enzymes were active with each of the different substrates tested (see Table 6). As a control, an extract of E. coli proteins without the expressed aldehyde reductase enzymes was prepared and assayed the same way. […] A Bradford assay was performed to determine protein concentrations in the extracts, and the enzymatic rates were calculated. Table 6 presents the activity (in μmol of NADPH oxidized and were NADPH specific (i.e., no activity was observed when NADH was used as the reductant)/min^−1/mg protein^−1) obtained for the purified protein extracts from the plasmids and the source of the DNA. Enzyme activity was calculated as follows: (ΔA340/min; after correction for pre-substrate addition rates)/(6.2×mg enzyme/mL reaction mixture).

The mark [1] stands for this setting: substrate 1 mM glyceraldehyde, NADPH.
Setting [2] is: substrate 10 mM glyceraldehyde, 100 μL of 1 mM NADH substituted for NADPH.
[3] abbreviates: substrate 10 mM glyceraldehyde, 100 μL of 10 mM ZnCl2 substituted for 100 μL ddH2O.
The mark [4] stands for this setting: substrate 10 mM glyceraldehyde, NADPH, room temperature, pH 7.0.
Setting [5] is: substrate 100 μL 0.5% hexanal, NADPH.
The mark [6] stands for this setting: substrate 100 μL aldehyde mixture (carbonyl compounds mixture), NADPH.

“And” between values parts separate entries of the source, which are not always exact repeats. Equal values may be shown once.

B1: sls2c.pk027.a23:fis: soybean aldehyde reductase encoded by clone sls2c.pk027.a23:fis, expressed in E. coli and purified (protein)
chain: MAKSIKFFELNTGAKIPSLGLGTWQAEPGVVAEALTTAIQVGYRHIDCASAYKNQAEIGSALKKLFDDGVVKREDLWITSKLWCSDHAPEDVPKALDKTLQELQLDYLDLYLIHWPVRMKSGTFGLNKEYLEQPDIPNTWRAMEALYDSDKARAIGVSNFSSKKLQDLLDIARVVPAVNQVELHPGWQQPKLRAFCESKEIHLSGYSPLGSPAALKSDILKNPVVTEIAERLGKTPAQVALRWGLQAGHSVLPKSTNESRIKGNFDIFDWSIPQDLMTKISEIKQERLVKASFFVHETYGAYRSIEDFWDGEL
modifications: Glycine max
notes: soybean aldehyde reductase encoded by clone sls2c.pk027.a23:fis, expressed in E. coli and purified
For the molecule B1, the Activity by setting is: under setting [1], 0.14 μmol · min^−1 · mg protein^−1; under setting [2], 0.00 μmol · min^−1 · mg protein^−1; under setting [3], 0.28 μmol · min^−1 · mg protein^−1; under setting [4], 0.70 μmol · min^−1 · mg protein^−1 and 0.60 μmol · min^−1 · mg protein^−1 and 0.74 μmol · min^−1 · mg protein^−1; under setting [5], 0.00 μmol · min^−1 · mg protein^−1; under setting [6], 0.58 μmol · min^−1 · mg protein^−1.

B2: sr1.pk0003.c5: soybean aldehyde reductase encoded by clone sr1.pk0003.c5:fis, expressed in E. coli and purified (protein)
chain: MAKLIKFFELNTGAKIPSVGLGTWQAEPGVVAKAVTTAILVGYRHIDCAQAYNNQAEIGSALKKLFDDGVVKREDLWITSKLWCSDHASEDVPKALDKTLQDLQLDYLDLYLIHWPVRMKSGSVGFKKEYLDQPDIPSTWKAMEALYDSGKARAIGVSNFSSKKLQDLMNIARVPPAVNQVELHPGWQQPKLHAFCESKGVHLSGYSPLGSPGVLKSDILKNPVVIEIAEKLGKTPAQVALRWGLQTGHSVLPKSTNESRIKGNFDVFDWSIPEEVMDKFSEIKQDRLIKGTFFVDETYGAFKTVEELWDGEL
modifications: Glycine max
notes: soybean aldehyde reductase encoded by clone sr1.pk0003.c5:fis, expressed in E. coli and purified
For the molecule B2, the Activity under setting [1] is 0.58 μmol · min^−1 · mg protein^−1; the Activity under setting [2] was 0.00 μmol · min^−1 · mg protein^−1; the Activity under setting [3] is recorded as 0.45 μmol · min^−1 · mg protein^−1; the Activity under setting [4] is 1.65 μmol · min^−1 · mg protein^−1 and 1.90 μmol · min^−1 · mg protein^−1 and 2.24 μmol · min^−1 · mg protein^−1; the Activity under setting [5] was 0.26 μmol · min^−1 · mg protein^−1; the Activity under setting [6] is on record as 0.55 μmol · min^−1 · mg protein^−1.
